Results published in patent US20230212319A1, “NOVEL ANTIGEN BINDING DOMAINS AND SYNTHETIC ANTIGEN RECEPTORS INCORPORATING THE SAME” (University of Southern California, priority 2020, published 2023).

B1: SEQ ID NO: 22252: bispecific SAR on CD19 targeted SIR backbone comprising the receptor binding domain of the ligand 4-1BB (protein)
chain: MALPVTALLLPLALLLHAARPDIQMTQSPSSLSASVGDRVTITCKASDHINNWLAWYQQKPGQAPKLLIYGATTLETGVPSRFSGSGSGTDYTLTISSLQPEDFATYYCQQSWNTPWTFGQGTKLEIKRLEDLKNVFPPEVAVFEPSEAEISHTQKATLVCLATGFYPDHVELSWWVNGKEVHSGVCTDPQPLKEQPALNDSRYCLSSRLRVSATFWQNPRNHFRCQVQFYGLSENDEWTQDRAKPVTQIVSAEAWGRADCGFTSESYQQGVLSATILYEILLGKATLYAVLVSALVLMAMVKRKDSRGRAKRSGSGATNFSLLKQAGDVEENPGPTSATMDWIWRILFLVGAATGAHSGPGLLDLRQGMFAQLVAQNVLLIDGPLSWYSDPGLAGVSLTGGLSYKEDTKELVVAKAGVYYVFFQLELRRVVAGEGSGSVSLALHLQPLRSAAGAAALALTVDLPPASSEARNSAFGFQGRLLHLSAGQRLGVHLHTEARARHAWQLTQGATVLGLFRVTPEIPAGLPSPRSEGSGGGGSGGGGSGGGGSFEQVQLQQPGAELVKPGASVKMSCKASGYAFSSYWINWMKQKPGQGLEWIGQIYPGDGDTNYNGKFKGRATLTADTSSSTAYMQLSSLTSEDSAVYFCARSITTVVGCAMDYWGQGTSVTVSSTRIQNPDPAVYQLRDSKSSDKSVCLFTDFDSQTNVSQSKDSDVYITDKCVLDMRSMDFKSNSAVAWSNKSDFACANAFNNSIIPEDTFFPSPESSCDVKLVEKSFETDTNLNFQNLSVIGFRILLLKVAGFNLLMTLRLWSSRAKRSGSGVKQTLNFDLLKLAGDVESNPGPSRGHMTEYKPTVRLATRDDVPRAVRTLAAAFADYPATRHTVDPDRHIERVTELQELFLTRVGLDIGKVWVADDGAAVAVWTTPESVEAGAVFAEIGPRMAELSGSRLAAQQQMEGLLAPHRPKEPAWFLATVGVSPDHQGKGLGSAVVLPGVEAAERAGVPAFLETSAPRNLPFYERLGFTVTADVEVPEGPRTWCMTRKPGA
B2: CD8SP-BCMA-FHVH-93-G4S-hu-mROO5-vL-[hTCRb-S57C]-F-P2A-IgHSP-CD20-VHH-USC1-2HCD26-G4S-AFP-Va-14-3-AI-[hTCRa-T48C]-F-F2A-PAC (protein)
chain: MALPVTALLLPLALLLHAARPACEVQLLESGGGLIQPGGSLRLSCAASGFTFSSHAMTWVRQAPGKGLEWVSAISGSGDYTHYADSVKGRFTISRDNSKNTVYLQMNSLRAEDSAVYYCAKDEDGGSLLGHRGQGTLVTVSSGTGGGGSGGGGSGGGGSEFDIQMTQSPSSLSASVGDRVTITCKASDHINNWLAWYQQKPGQAPKLLIYGATTLETGVPSRFSGSGSGTDYTLTISSLQPEDFATYYCQQSWNTPWTFGQGTKLEIKRLEDLKNVFPPEVAVFEPSEAEISHTQKATLVCLATGFYPDHVELSWWVNGKEVHSGVCTDPQPLKEQPALNDSRYCLSSRLRVSATFWQNPRNHFRCQVQFYGLSENDEWTQDRAKPVTQIVSAEAWGRADCGFTSESYQQGVLSATILYEILLGKATLYAVLVSALVLMAMVKRKDSRGRAKRSGSGATNFSLLKQAGDVEENPGPTSATMDWIWRILFLVGAATGAHSGPEVQLVESGGGLVQAGGSLRLSCAASGRTFSMGWFRQAPGKEREFVAAITYSGGSPYYADSVKGRFTISRDNAKNTVYLQMNSLKPEDTAVYYCAANPTYGSDWNAENWGQGTQVTVSSGSGGGGSGGGGSGGGGSFEQKEVEQNSGPLSVPEGAIASLNCTYSDRGSQSFFWYRQYSGKSPELIMSIYSNGDKEDGRFTAQLNKASQYVSLLIRDSQPSDSATYLCAVNSQSGVALNFGKGTSLLVTPHIQNPDPAVYQLRDSKSSDKSVCLFTDFDSQTNVSQSKDSDVYITDKCVLDMRSMDFKSNSAVAWSNKSDFACANAFNNSIIPEDTFFPSPESSCDVKLVEKSFETDTNLNFQNLSVIGFRILLLKVAGFNLLMTLRLWSSRAKRSGSGVKQTLNFDLLKLAGDVESNPGPSRGHMTEYKPTVRLATRDDVPRAVRTLAAAFADYPATRHTVDPDRHIERVTELQELFLTRVGLDIGKVWVADDGAAVAVWTTPESVEAGAVFAEIGPRMAELSGSRLAAQQQMEGLLAPHRPKEPAWFLATVGVSPDHQGKGLGSAVVLPGVEAAERAGVPAFLETSAPRNLPFYERLGFTVTADVEVPEGPRTWCMTRKPGA
B3: SEQ ID NO: 22253: bispecific SAR on CD19 targeted SIR backbone comprising the receptor binding domain of the ligand APRIL (protein)
chain: MALPVTALLLPLALLLHAARPDIQMTQSPSSLSASVGDRVTITCKASDHINNWLAWYQQKPGQAPKLLIYGATTLETGVPSRFSGSGSGTDYTLTISSLQPEDFATYYCQQSWNTPWTFGQGTKLEIKRLEDLKNVFPPEVAVFEPSEAEISHTQKATLVCLATGFYPDHVELSWWVNGKEVHSGVCTDPQPLKEQPALNDSRYCLSSRLRVSATFWQNPRNHFRCQVQFYGLSENDEWTQDRAKPVTQIVSAEAWGRADCGFTSESYQQGVLSATILYEILLGKATLYAVLVSALVLMAMVKRKDSRGRAKRSGSGATNFSLLKQAGDVEENPGPTSATMDWIWRILFLVGAATGAHSGPVLHLVPINATSKDDSDVTEVMWQPALRRGRGLQAQGYGVRIQDAGVYLLYSQVLFQDVTFTMGQVVSREGQGRQETLFRCIRSMPSHPDRAYNSCYSAGVFHLHQGDILSVIIPRARAKLNLSPHGTFLGFVKLGSGGGGSGGGGSGGGGSFEQVQLQQPGAELVKPGASVKMSCKASGYAFSSYWINWMKQKPGQGLEWIGQIYPGDGDTNYNGKFKGRATLTADTSSSTAYMQLSSLTSEDSAVYFCARSITTVVGCAMDYWGQGTSVTVSSTRIQNPDPAVYQLRDSKSSDKSVCLFTDFDSQTNVSQSKDSDVYITDKCVLDMRSMDFKSNSAVAWSNKSDFACANAFNNSIIPEDTFFPSPESSCDVKLVEKSFETDTNLNFQNLSVIGFRILLLKVAGFNLLMTLRLWSSRAKRSGSGVKQTLNFDLLKLAGDVESNPGPSRGHMTEYKPTVRLATRDDVPRAVRTLAAAFADYPATRHTVDPDRHIERVTELQELFLTRVGLDIGKVWVADDGAAVAVWTTPESVEAGAVFAEIGPRMAELSGSRLAAQQQMEGLLAPHRPKEPAWFLATVGVSPDHQGKGLGSAVVLPGVEAAERAGVPAFLETSAPRNLPFYERLGFTVTADVEVPEGPRTWCMTRKPGA
B4: CD8SP-CD19-hu-mROO5-1-vL-IgCL-TCRg-6MD-F-P2A-SP-CD19-hu-mROO5-1-vH-hTCR-delta-F-F2A-PAC (protein)
chain: MALPVTALLLPLALLLHAARPDIQMTQSPSSLSASVGDRVTITCKASDHINNWLAWYQQKPGQAPKLLIYGATTLETGVPSRFSGSGSGTDYTLTISSLQPEDFATYYCQQSWNTPWTFGQGTKLEIKRLEGQPKANPTVTLFPPSSEELQANKATLVCLISDFYPGAVTVAWKADGSPVKAGVETTKPSKQSNNKYAASSYLSLTPEQWKSHRSYSCQVTHEGSTVEKTVAPTECSPIKTDVITMDPKDNCSKDANDTLLLQLTNTSAYYMYLLLLLKSVVYFAIITCCLLRRTAFCCNGEKSRAKRSGSGATNFSLLKQAGDVEENPGPTSMDWIWRILFLVGAATGAHSFEQVQLQQPGAELVKPGASVKMSCKASGYAFSSYWINWMKQKPGQGLEWIGQIYPGDGDTNYNGKFKGRATLTADTSSSTAYMQLSSLTSEDSAVYFCARSITTVVGCAMDYWGQGTSVTVSSTRSQPHTKPSVFVMKNGTNVACLVKEFYPKDIRINLVSSKKITEFDPAIVISPSGKYNAVKLGKYEDSNSVTCSVQHDNKTVHSTDFEVKTDSTDHVKPKETENTKQPSKSCHKPKAIVHTEKVNMMSLTVLGLRMLFAKTVAVNFLLTAKLFFLRAKRSGSGVKQTLNFDLLKLAGDVESNPGPSRGHMTEYKPTVRLATRDDVPRAVRTLAAAFADYPATRHTVDPDRHIERVTELQELFLTRVGLDIGKVWVADDGAAVAVWTTPESVEAGAVFAEIGPRMAELSGSRLAAQQQMEGLLAPHRPKEPAWFLATVGVSPDHQGKGLGSAVVLPGVEAAERAGVPAFLETSAPRNLPFYERLGFTVTADVEVPEGPRTWCMTRKPGA

tested on: RAJI cells; assay: JNG assay, co-culture with RAJI cells; assay type: cell-based; details: co-culture with RAJI cells
Description: Cellular supernatant is collected and assayed for the induction of cytokines (e.g., IL2).
JNG (Jurkat cells expressing EGFP under an NFAT promoter) were infected with lentiviral vectors encoding different single chain and multi-chain SARs by spinfection in the presence of 8 µg/ml of Polybrene® (Sigma, Catalog no. H9268). The Jurkat-NFAT-GFP cells are engineered in such a way that the IL-2 promoter, which carries NFAT binding sites, is cloned upstream of the GFP gene. These cells have been used to study signaling via TCR and CAR. The different SARs were stably expressed in Jurkat NFAT-GFP cells by lentiviral mediated gene transfer, followed by selection with puromycin or blasticidin. No drug selection was used in case the construct lacked an antibiotic resistance gene. The SAR-expressing Jurkat-NFAT-GFP cells were cocultured with the target cells at E:T ratio of approximately 1:2 for approximately 4 hours to 18 hours. When the interaction between SIRs and their target antigen results in activation of the NFAT pathway, GFP expression is induced. […] GFP expression was monitored by FACS analysis. The Jurkat-NFAT-GFP (parental) cells were used as control. The structure of different constructs can be determined based on their names. […] The sequence of the other constructs in the table can be similarly determined from their names and by referring to the different Tables of this disclosure that provide the names and SEQ ID NO of the different modules. Alternatively, the composition and modular architecture of the different SAR constructs can be determined from their sequences by bioinformatics tools, including using nucleic acid and amino acids homology searches. A SAR is considered positive in the assay in case the SAR expressing Jurkat-NFAT-GFP cells show greater % GFP positive cells when cultured with the target cell line as compared to parental Jurkat-NFAT-GFP cells. […] In general, the number +/-, +, 2+, 3+, 4+, 5+ refer to approximately 5%, 10%, 20%, 30%, 40% and 50% GFP positive cells. The % of GFP induction in the above assay is dependent not only the relative strength of the SAR but also, among other factors, on the relative level of expression of the SAR in the JNG cells and the relative level of expression of the target antigen in the target cell line. To control for the difference in gene transduction efficiency of the different SAR constructs, the experiment was conducted with JNG cells transduced with SAR constructs co-expressing a drug resistance gene (e.g., puromycin or PAC) followed by drug selection to generate a stable population of SAR-expressing cells. It is to be noted that the drug resistance gene (e.g., PAC) in the SAR constructs is optional and in vivo studies were conducted with SAR constructs lacking the PAC gene.

| Molecule | GFP induction / activity |
| --- | --- |
| B1 | retained the ability to respond |
| B2 | robust GFP induction activity |
| B3 | retained the ability to respond |
| B4 | robust GFP induction |
